The nature of the series: Enzyme-coupled assay: transfer of acyl-moieties from MMal-CoA to the ACP. Type of series: biochemical. Conditions: substrate MMal-CoA, acceptor ACP from murine FAS. The procedure:
An enzyme-coupled assay was performed to analyze the transfer of acyl-moieties from CoA to the ACP. Four solutions were prepared as 4× concentrated stocks in the assay buffer. Solution 1 contained the acyltransferase at the concentration range of 0.01 μM-10 μM, depending on the transfer kinetics to achieve good signal to noise ratios. Solution 2 contained the enzyme-coupled system including 8 mM α-ketoglutaric acid, 1.6 mM NAD+, 1.6 mM TPP and 60 mU/100 μL αKGDH. Solution 3 contained the methylmalonyl (MMal)-CoA at concentrations between 0.1 μM and 1,000 μM and solution 4 contained the ACP from murine FAS as a standalone protein at 240 μM. 5 μL of Solutions 1-3 were pipetted into a 384-well Small Volume HiBase Microplates (Greiner Bio-one) and mixed manually. The reactions were started by adding solution 4 with the dispenser system of the microplate reader (ClarioStar, BMG labtech). The reaction progress was recorded using the following settings: 348-20 nm; emission: 476-20 nm; gain: 1500; focal height: 11.9 mm; flashes: 17; orbital averaging: off.

As a reminder, the Km is the substrate concentration at which the rate is half of its maximum. One may read the kcat as the maximal rate divided by the concentration of active sites.

B1: Mutant A05: engineered murine acyltransferase, mutation K186E (protein)
chain: NKRPLWFICSGMGTQWRGMGLSLMRLDSFRESILRSDEAVKPLGVKVSDLLLSTDERTFDDIVHAFVSLTAIQIALIDLLTSVGLKPDGIIGHSLGEVACGYADGCLSQREAVLAAYWRGQCIKDAHLPPGSMAAVGLSWEECKQRCPAGVVPACHNSEDTVTISGPQAAVNEFVEQLKQEGVFAEEVRTGGLAFHSYFMEGIAPTLLQALKKVIREPRPRSARWLSTSIPEAQWQSSLARTSSAEYNVNNLVSPVLFQEALWHIPEHAVVLEIAPHALLQAVLKRGVKSSCTIIPLMKRDHKDNLEFFLTNLGKVHLT
On to B1, for which the Michaelis-Menten constant (Km) worked out at 14.2 µM and the kcat came out at 0.101 s⁻¹.

B2: Mutant A02: engineered murine acyltransferase, mutation T161Y (protein)
chain: NKRPLWFICSGMGTQWRGMGLSLMRLDSFRESILRSDEAVKPLGVKVSDLLLSTDERTFDDIVHAFVSLTAIQIALIDLLTSVGLKPDGIIGHSLGEVACGYADGCLSQREAVLAAYWRGQCIKDAHLPPGSMAAVGLSWEECKQRCPAGVVPACHNSEDYVTISGPQAAVNEFVEQLKQEGVFAKEVRTGGLAFHSYFMEGIAPTLLQALKKVIREPRPRSARWLSTSIPEAQWQSSLARTSSAEYNVNNLVSPVLFQEALWHIPEHAVVLEIAPHALLQAVLKRGVKSSCTIIPLMKRDHKDNLEFFLTNLGKVHLT
As for B2, the Km stood at 38.8 µM and the kcat was 0.428 s⁻¹.

B3: Mutant A14: engineered murine acyltransferase, mutations K186E R300D (protein)
chain: NKRPLWFICSGMGTQWRGMGLSLMRLDSFRESILRSDEAVKPLGVKVSDLLLSTDERTFDDIVHAFVSLTAIQIALIDLLTSVGLKPDGIIGHSLGEVACGYADGCLSQREAVLAAYWRGQCIKDAHLPPGSMAAVGLSWEECKQRCPAGVVPACHNSEDTVTISGPQAAVNEFVEQLKQEGVFAEEVRTGGLAFHSYFMEGIAPTLLQALKKVIREPRPRSARWLSTSIPEAQWQSSLARTSSAEYNVNNLVSPVLFQEALWHIPEHAVVLEIAPHALLQAVLKRGVKSSCTIIPLMKDDHKDNLEFFLTNLGKVHLT
Take B3: the Km was 218 µM and the kcat is 0.051 s⁻¹.

B4: Mutant A12: engineered murine acyltransferase, mutations K186D R300D (protein)
chain: NKRPLWFICSGMGTQWRGMGLSLMRLDSFRESILRSDEAVKPLGVKVSDLLLSTDERTFDDIVHAFVSLTAIQIALIDLLTSVGLKPDGIIGHSLGEVACGYADGCLSQREAVLAAYWRGQCIKDAHLPPGSMAAVGLSWEECKQRCPAGVVPACHNSEDTVTISGPQAAVNEFVEQLKQEGVFADEVRTGGLAFHSYFMEGIAPTLLQALKKVIREPRPRSARWLSTSIPEAQWQSSLARTSSAEYNVNNLVSPVLFQEALWHIPEHAVVLEIAPHALLQAVLKRGVKSSCTIIPLMKDDHKDNLEFFLTNLGKVHLT
As for B4, the Km came out at 66.2 µM and the catalytic constant (kcat) was 0.019 s⁻¹.

B5: Mutant A01: engineered murine acyltransferase, mutation T161A (protein)
chain: NKRPLWFICSGMGTQWRGMGLSLMRLDSFRESILRSDEAVKPLGVKVSDLLLSTDERTFDDIVHAFVSLTAIQIALIDLLTSVGLKPDGIIGHSLGEVACGYADGCLSQREAVLAAYWRGQCIKDAHLPPGSMAAVGLSWEECKQRCPAGVVPACHNSEDAVTISGPQAAVNEFVEQLKQEGVFAKEVRTGGLAFHSYFMEGIAPTLLQALKKVIREPRPRSARWLSTSIPEAQWQSSLARTSSAEYNVNNLVSPVLFQEALWHIPEHAVVLEIAPHALLQAVLKRGVKSSCTIIPLMKRDHKDNLEFFLTNLGKVHLT
B5: the Km was found to be 1.47 µM and the catalytic constant (kcat) stood at 0.051 s⁻¹.

B6: Mutant A07: engineered murine acyltransferase, mutation K186D (protein)
chain: NKRPLWFICSGMGTQWRGMGLSLMRLDSFRESILRSDEAVKPLGVKVSDLLLSTDERTFDDIVHAFVSLTAIQIALIDLLTSVGLKPDGIIGHSLGEVACGYADGCLSQREAVLAAYWRGQCIKDAHLPPGSMAAVGLSWEECKQRCPAGVVPACHNSEDTVTISGPQAAVNEFVEQLKQEGVFADEVRTGGLAFHSYFMEGIAPTLLQALKKVIREPRPRSARWLSTSIPEAQWQSSLARTSSAEYNVNNLVSPVLFQEALWHIPEHAVVLEIAPHALLQAVLKRGVKSSCTIIPLMKRDHKDNLEFFLTNLGKVHLT
As for B6, the Km was found to be 18.6 µM and the turnover number (kcat) was 0.093 s⁻¹.

B7: Mutant A11: engineered murine acyltransferase, mutation R300E (protein)
chain: NKRPLWFICSGMGTQWRGMGLSLMRLDSFRESILRSDEAVKPLGVKVSDLLLSTDERTFDDIVHAFVSLTAIQIALIDLLTSVGLKPDGIIGHSLGEVACGYADGCLSQREAVLAAYWRGQCIKDAHLPPGSMAAVGLSWEECKQRCPAGVVPACHNSEDTVTISGPQAAVNEFVEQLKQEGVFAKEVRTGGLAFHSYFMEGIAPTLLQALKKVIREPRPRSARWLSTSIPEAQWQSSLARTSSAEYNVNNLVSPVLFQEALWHIPEHAVVLEIAPHALLQAVLKRGVKSSCTIIPLMKEDHKDNLEFFLTNLGKVHLT
For the molecule B7, the Km came out at 3.33 µM and the catalytic constant (kcat) was 0.834 s⁻¹.

B8: Mutant A10: engineered murine acyltransferase, mutation R300D (protein)
chain: NKRPLWFICSGMGTQWRGMGLSLMRLDSFRESILRSDEAVKPLGVKVSDLLLSTDERTFDDIVHAFVSLTAIQIALIDLLTSVGLKPDGIIGHSLGEVACGYADGCLSQREAVLAAYWRGQCIKDAHLPPGSMAAVGLSWEECKQRCPAGVVPACHNSEDTVTISGPQAAVNEFVEQLKQEGVFAKEVRTGGLAFHSYFMEGIAPTLLQALKKVIREPRPRSARWLSTSIPEAQWQSSLARTSSAEYNVNNLVSPVLFQEALWHIPEHAVVLEIAPHALLQAVLKRGVKSSCTIIPLMKDDHKDNLEFFLTNLGKVHLT
Regarding B8, the Km was 5.06 µM and the kcat was 0.582 s⁻¹.

B9: Mutant A15: engineered murine acyltransferase, mutations K186E R300E (protein)
chain: NKRPLWFICSGMGTQWRGMGLSLMRLDSFRESILRSDEAVKPLGVKVSDLLLSTDERTFDDIVHAFVSLTAIQIALIDLLTSVGLKPDGIIGHSLGEVACGYADGCLSQREAVLAAYWRGQCIKDAHLPPGSMAAVGLSWEECKQRCPAGVVPACHNSEDTVTISGPQAAVNEFVEQLKQEGVFAEEVRTGGLAFHSYFMEGIAPTLLQALKKVIREPRPRSARWLSTSIPEAQWQSSLARTSSAEYNVNNLVSPVLFQEALWHIPEHAVVLEIAPHALLQAVLKRGVKSSCTIIPLMKEDHKDNLEFFLTNLGKVHLT
Regarding B9, the Km amounted to 58.4 µM and the kcat is 0.030 s⁻¹.

B10: Mutant A13: engineered murine acyltransferase, mutations K186D R300E (protein)
chain: NKRPLWFICSGMGTQWRGMGLSLMRLDSFRESILRSDEAVKPLGVKVSDLLLSTDERTFDDIVHAFVSLTAIQIALIDLLTSVGLKPDGIIGHSLGEVACGYADGCLSQREAVLAAYWRGQCIKDAHLPPGSMAAVGLSWEECKQRCPAGVVPACHNSEDTVTISGPQAAVNEFVEQLKQEGVFADEVRTGGLAFHSYFMEGIAPTLLQALKKVIREPRPRSARWLSTSIPEAQWQSSLARTSSAEYNVNNLVSPVLFQEALWHIPEHAVVLEIAPHALLQAVLKRGVKSSCTIIPLMKEDHKDNLEFFLTNLGKVHLT
B10: the Km stood at 686 µM and the turnover number (kcat) turned out to be 0.190 s⁻¹.

B11: Mutant A08: engineered murine acyltransferase, mutation K285D (protein)
chain: NKRPLWFICSGMGTQWRGMGLSLMRLDSFRESILRSDEAVKPLGVKVSDLLLSTDERTFDDIVHAFVSLTAIQIALIDLLTSVGLKPDGIIGHSLGEVACGYADGCLSQREAVLAAYWRGQCIKDAHLPPGSMAAVGLSWEECKQRCPAGVVPACHNSEDTVTISGPQAAVNEFVEQLKQEGVFAKEVRTGGLAFHSYFMEGIAPTLLQALKKVIREPRPRSARWLSTSIPEAQWQSSLARTSSAEYNVNNLVSPVLFQEALWHIPEHAVVLEIAPHALLQAVLDRGVKSSCTIIPLMKRDHKDNLEFFLTNLGKVHLT
Regarding B11, the Km was 0.11 µM and the kcat came out at 0.133 s⁻¹.

B12: Mutant A03: engineered murine acyltransferase, mutations T161A F184A R286A (protein)
chain: NKRPLWFICSGMGTQWRGMGLSLMRLDSFRESILRSDEAVKPLGVKVSDLLLSTDERTFDDIVHAFVSLTAIQIALIDLLTSVGLKPDGIIGHSLGEVACGYADGCLSQREAVLAAYWRGQCIKDAHLPPGSMAAVGLSWEECKQRCPAGVVPACHNSEDAVTISGPQAAVNEFVEQLKQEGVAAKEVRTGGLAFHSYFMEGIAPTLLQALKKVIREPRPRSARWLSTSIPEAQWQSSLARTSSAEYNVNNLVSPVLFQEALWHIPEHAVVLEIAPHALLQAVLKAGVKSSCTIIPLMKRDHKDNLEFFLTNLGKVHLT
As to B12, the Km came out at 3.41 µM and the turnover number (kcat) worked out at 0.021 s⁻¹.

Values taken from patent publication US20260218138A1, “ENGINEERED ACYLTRANSFERASES HAVING ALTERED SUBSTRATE SPECIFICITY” (KEZBIOSOLUTIONS GMBH, priority 2022, published 2026).
